The text below walks through data of patent publication US9296811B2, “Methods for treating a tumor using an antibody that specifically binds HMW-MAA” (University of Pittsburgh—Of the Commonwealth System of …, priority 2010, dated 2016).

Test [1] deals with melanoma cell lines (Colo38, M21, SK-MEL-37, MV3, 1520). Nature of the test: MTT cell growth assay, vemurafenib and C21. It counts as cell-based, human.
Test [2] has as its target V600E mutated BRAF (Homo sapiens, UniProt P15056, V600E). The note with it: cited from earlier work.
For test [3], the system named is normal human organ tissues. Nature of the test: IHC staining of normal human organ tissue microarray with C21 (cross-reactivity). It counts as binding. The conditions noted are these: for IHC Result: normal human tissue, C21 4 μg/mL.
For test [4], the system named is human melanocytic lesions. The test can be described thus: Immunohistochemical staining of frozen sections of human melanocytic lesions with C21. It counts as binding. The conditions noted are these: benign pigmented nevus, primary melanoma, metastatic melanoma. From the text:
FIG. 6A-6F. Digital images of immunohistochemical staining of frozen sections of human melanocytic lesions with C21.

Test [5] concerns the target T1, CSPG4 (Homo sapiens, UniProt Q6UVK1).
T1 construct: Representative FACS analysis of CSPG4 expression by melanoma cell lines using CSPG4-specific C21 and PE-conjugated anti-human IgG; endogenous in cells; host or cells: established (1520, 836, Colo38, M21, MEL526, MV3, SK-MEL-28, SK-MEL-37, WM1158) and patient-derived (Mel-JR, Mel-KD, pre/post vemurafenib) human melanoma cell lines
Nature of the test: FACS reactivity of C21 with established and patient-derived melanoma cell lines. It counts as binding. The note with it: established or patient-derived lines containing BRAF^V600E or BRAF^WT. From the text: FIG. 5A to 5B. […] (FIG. 5A) Representative FACS analysis of CSPG4 expression by melanoma cell lines using CSPG4-specific C21 and PE-conjugated anti-human IgG. 119 was used as an isotype control. (FIG. 5B) A panel of melanoma cell lines bound by C21. *Percentage of CSPG4^+ cells. MFI: mean fluorescence intensity. The top section (1520, 836, Colo38, M21, MEL526, MV3, KS-MEL-28, SK-MEL-37, and WM1158) are established melanoma cell lines; The bottom section (MeI-JR(pre), MEL-JR(post), Mel-KD(pre), and Mel-KD(post)) are patient-derived human melanoma cell lines; pre: before vemurafenib (PLX4032) treatment, post: after vemurafenib (PLX4032) treatment.
A fully human mAb, scFc-FcC21 was produced by combining the HMW-MAA (CSPG4)-specific single chain of variable regions of heavy and light chains (scFv) to a Fc portion of IgG1 at the DNA level.

The subject of test [6] is BRAF^V600E and BRAF^WT melanoma cell. The test can be described thus: MTT growth inhibition of melanoma cell lines by C21. In kind it is cell-based, human. The conditions noted are these: BRAF^V600E and BRAF^WT cells, 3, 5 days. How it is done:
FIG. 7. […] The indicated cells were seeded in triplicate in 96-well plates (2.5×10^3/well) and treated for 3, 5 days with C21 and 119 in RPMI 1640/1% FCS. Living cells were detected using MTT assays. The results are expressed as percent inhibition of cell growth, with untreated cells representing 100%. Mean values±SD were calculated from two independent experiments.

The subject of test [7] is human melanoma BRAF(V600E)/CSPG4^+ xenografts. Nature of the test: Survival of mice bearing M21 xenografts, vemurafenib and C21. The note with it: M21 xenograft; vemurafenib 25 mg/kg orally twice a day for 13 days; C21 1 mg/mouse i.v. twice a week for 2 weeks; vs vemurafenib alone or vemurafenib+119. It counts as in vivo. How it is done: FIG. 11. Improved response duration for vemurafenib in vivo. Human melanoma M21^BRAF(V600E)/CSPG4+ cells (2×10^6/mouse) were injected subcutaneously (s.c.) into 20 mice (day 0). By day 7, tumors were measurable, and mice were divided into four groups (5 mice/group) using a stratified randomization strategy. Mice received either vemurafenib, vemurafenib+C21, vemurafenib+119, or were untreated. Vemurafenib was delivered orally (25 mg/kg) twice a day for 13 days, while C21 or 119 were injected i.v. (1 mg/mouse) twice a week for 2 weeks. All mice were monitored for survival.

The test system of test [8] is melanoma cells. The test can be described thus: Prevention/delay of acquired resistance of melanoma cells to vemurafenib in vitro. It counts as cell-based, human. How it is done: FIG. 13. Prevention/delay of acquired resistance of melanoma cells to vemurafenib. Melanoma cells were seeded in 6-well plates (2.5×10^4 cells/well) containing 2 ml/well RPMI 1640/10% FCS. […] Cells received fresh growth medium every 4 days containing the appropriate treatment concentrations, for 28 days. Cells in randomly selected fields were photographed at different timepoints using a Zeiss Inverted Fluorescence Microscope
In addition, the results presented in FIG. 13 evidences that treatment with C21 delayed resistance to vemurafenib up to 28 days in vitro, at which point the rate of cell growth was unaffected by the presence or absence of vemurafenib (10 μM) in the absence of C21.

For test [9], the system named is EGFR and PDGFRα. The test can be described thus: Activation of EGFR and PDGFRα in melanoma cells after C21. The conditions noted are these: acquired resistance to BRAF inhibitor. It counts as cell-based, human.

Entries after “also recorded” stand apart in the source; their conditions may differ.

Chain of V600E mutated BRAF (P15056 whole entry V600E): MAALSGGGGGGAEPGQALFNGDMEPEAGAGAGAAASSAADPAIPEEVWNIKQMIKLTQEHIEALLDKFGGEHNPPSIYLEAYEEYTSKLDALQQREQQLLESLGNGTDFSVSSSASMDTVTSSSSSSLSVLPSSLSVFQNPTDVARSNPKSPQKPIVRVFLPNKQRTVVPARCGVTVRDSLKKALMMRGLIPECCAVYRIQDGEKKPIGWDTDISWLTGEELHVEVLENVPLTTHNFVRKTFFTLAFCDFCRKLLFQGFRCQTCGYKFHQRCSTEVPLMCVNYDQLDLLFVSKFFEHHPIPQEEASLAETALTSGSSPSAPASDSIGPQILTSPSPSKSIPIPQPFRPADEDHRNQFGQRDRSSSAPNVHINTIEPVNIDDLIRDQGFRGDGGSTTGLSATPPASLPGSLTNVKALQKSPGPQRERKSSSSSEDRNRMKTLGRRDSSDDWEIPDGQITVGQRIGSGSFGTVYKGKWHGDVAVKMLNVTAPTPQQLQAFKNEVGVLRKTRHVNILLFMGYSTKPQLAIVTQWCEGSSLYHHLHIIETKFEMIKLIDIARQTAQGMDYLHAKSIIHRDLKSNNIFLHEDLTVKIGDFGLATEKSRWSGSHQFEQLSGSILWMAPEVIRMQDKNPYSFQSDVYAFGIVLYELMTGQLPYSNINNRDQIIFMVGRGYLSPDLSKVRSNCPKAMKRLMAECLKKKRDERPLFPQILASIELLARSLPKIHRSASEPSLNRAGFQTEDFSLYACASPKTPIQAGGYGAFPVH
T1 sequence (Q6UVK1 30-2322): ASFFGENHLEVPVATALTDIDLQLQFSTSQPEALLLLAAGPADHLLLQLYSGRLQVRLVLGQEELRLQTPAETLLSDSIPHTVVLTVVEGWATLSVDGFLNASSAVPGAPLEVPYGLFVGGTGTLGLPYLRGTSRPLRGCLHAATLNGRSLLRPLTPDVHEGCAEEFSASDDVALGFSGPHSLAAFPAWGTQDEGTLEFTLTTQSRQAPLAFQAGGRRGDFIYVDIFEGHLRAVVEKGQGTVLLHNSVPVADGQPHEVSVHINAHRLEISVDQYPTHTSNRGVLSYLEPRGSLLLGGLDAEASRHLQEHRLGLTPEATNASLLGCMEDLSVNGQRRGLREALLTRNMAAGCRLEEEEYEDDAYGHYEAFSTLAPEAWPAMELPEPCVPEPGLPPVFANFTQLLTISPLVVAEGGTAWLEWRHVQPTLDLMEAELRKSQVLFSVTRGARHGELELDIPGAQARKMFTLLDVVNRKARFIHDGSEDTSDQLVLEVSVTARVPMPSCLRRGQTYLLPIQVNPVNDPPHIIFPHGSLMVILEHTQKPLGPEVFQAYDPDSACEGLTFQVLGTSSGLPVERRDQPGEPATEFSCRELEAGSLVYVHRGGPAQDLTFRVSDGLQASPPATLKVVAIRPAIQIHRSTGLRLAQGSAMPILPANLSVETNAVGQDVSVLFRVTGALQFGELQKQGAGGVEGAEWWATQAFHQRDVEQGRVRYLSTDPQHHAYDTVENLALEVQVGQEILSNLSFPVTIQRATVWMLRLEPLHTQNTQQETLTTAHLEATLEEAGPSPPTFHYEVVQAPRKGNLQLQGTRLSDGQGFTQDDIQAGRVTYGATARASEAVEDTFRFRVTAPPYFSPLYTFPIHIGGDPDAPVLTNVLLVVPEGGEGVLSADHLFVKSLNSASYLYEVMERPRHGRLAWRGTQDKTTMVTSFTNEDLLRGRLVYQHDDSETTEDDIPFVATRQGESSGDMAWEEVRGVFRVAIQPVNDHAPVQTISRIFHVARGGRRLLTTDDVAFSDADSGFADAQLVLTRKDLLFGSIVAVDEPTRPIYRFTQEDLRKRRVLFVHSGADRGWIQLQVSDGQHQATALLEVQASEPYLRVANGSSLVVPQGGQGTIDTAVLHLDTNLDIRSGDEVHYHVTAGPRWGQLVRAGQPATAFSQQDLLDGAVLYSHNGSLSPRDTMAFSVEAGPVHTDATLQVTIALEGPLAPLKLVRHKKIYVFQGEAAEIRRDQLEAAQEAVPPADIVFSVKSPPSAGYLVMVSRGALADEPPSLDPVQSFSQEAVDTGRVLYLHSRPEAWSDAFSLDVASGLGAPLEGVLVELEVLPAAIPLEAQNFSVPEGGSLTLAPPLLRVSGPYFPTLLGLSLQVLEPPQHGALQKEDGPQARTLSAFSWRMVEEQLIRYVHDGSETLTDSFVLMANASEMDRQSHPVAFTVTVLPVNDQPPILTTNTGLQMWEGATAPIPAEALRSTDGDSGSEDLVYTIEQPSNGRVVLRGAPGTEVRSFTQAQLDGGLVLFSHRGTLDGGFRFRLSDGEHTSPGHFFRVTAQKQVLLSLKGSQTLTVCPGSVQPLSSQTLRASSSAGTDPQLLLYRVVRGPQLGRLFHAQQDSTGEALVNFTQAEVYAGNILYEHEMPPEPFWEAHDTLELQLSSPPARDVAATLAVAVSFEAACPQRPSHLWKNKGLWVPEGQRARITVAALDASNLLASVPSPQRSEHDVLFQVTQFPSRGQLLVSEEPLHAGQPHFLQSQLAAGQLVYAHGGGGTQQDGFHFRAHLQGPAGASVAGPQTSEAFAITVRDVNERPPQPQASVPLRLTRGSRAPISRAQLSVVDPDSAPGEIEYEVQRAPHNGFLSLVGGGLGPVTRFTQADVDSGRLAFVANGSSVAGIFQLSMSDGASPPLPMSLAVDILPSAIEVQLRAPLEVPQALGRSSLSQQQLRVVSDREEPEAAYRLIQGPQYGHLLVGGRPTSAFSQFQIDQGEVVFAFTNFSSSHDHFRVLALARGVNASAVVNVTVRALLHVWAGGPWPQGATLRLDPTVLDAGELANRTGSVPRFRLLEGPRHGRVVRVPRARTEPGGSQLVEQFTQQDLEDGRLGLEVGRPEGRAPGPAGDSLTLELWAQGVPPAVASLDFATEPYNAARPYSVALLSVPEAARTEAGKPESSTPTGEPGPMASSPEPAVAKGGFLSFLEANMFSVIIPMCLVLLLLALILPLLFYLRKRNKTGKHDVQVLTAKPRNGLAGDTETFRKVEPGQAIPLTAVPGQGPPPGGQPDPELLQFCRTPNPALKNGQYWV

Turning to `CCCS(=O)(=O)Nc1ccc(F)c(C(=O)c2c[nH]c3ncc(-c4ccc(Cl)cc4)cc23)c1F` [vemurafenib, Vemurafenib], the cell growth result in [1] (BRAF^WT MV3 cells, vemurafenib 500 nM) is reported as “did not affect”. Besides, the response rate in test [2] (32 BRAF mutated advanced melanoma patients, phase II study (Flaherty et al 2010)) is 70%. Besides, the “tumor regression and overall survival” value in test [2] (Phase I clinical trials, advanced melanoma patients with the V600E BRAF mutation) is “effective in promoting tumor regression and increasing overall survival”. In test [2] (melanoma patients treated with BRAF selective inhibitor), the “median duration of response” value is listed as about 8 months.

B1: C21: fully human mAb: HMW-MAA (CSPG4)-specific scFv combined to a Fc portion of IgG1; SEQ ID NOs: 3 and 4 (antibody, listed as Homo sapiens, V domains shown)
VH: QVQLVQSGAEVKKPGSSVKVSCKASGGTFSSYAISWVRQAPGQGLEWMGGIIPIFGTANYAQKFQGRVTITADESTSTAYMELSSLRSDDTAVYYCARALDPITFDSWGQGTLVTVSR
VL: SELTQDPAVSVALGQTVRITCQGDSLRSYYASWYQQKPGQAPVLVIYGKNNRPSGIPDRFSGSSSGNTASLTITGAQAEDEADYYCNSRDSSGNHVVFGGGTKLTVLGRS
On to B1, for which the “IHC Result” value in test [3] (Cerebellum), in [3] (Cerebrum), in test [3] (Colon), in test [3] (Esophagus), in [3] (Heart) and in [3] (Kidney) was “negative” throughout. Moreover, the “IHC Result” value in [3] (Liver), in [3] (Lung), in [3] (Lymph node), in test [3] (Ovary), in test [3] (Pancreas) and in test [3] (Peripheral nerve) was “negative” throughout. For the same molecule, the “IHC Result” value in [3] (Pituitary gland), in test [3] (Placenta), in [3] (Prostate), in test [3] (Salivary gland), in test [3] (Skeletal muscle) and in test [3] (Skin) was “negative” in each case. Besides, the “IHC Result” value in test [3] (Small intestine), in test [3] (Smooth muscle), in test [3] (Spinal cord), in [3] (Spleen), in [3] (Stomach) and in [3] (Testis) was “negative” each time. For the same molecule, the “IHC Result” value in [3] (Thymus), in test [3] (Thyroid gland), in [3] (Ureter) and in [3] (Uterine cervix) was “negative” each time. The “recognition of a panel of normal human organ tissues” value in test [3] (FIG. 6, Table 2) was “not a panel of normal human organ tissues”. The “IHC staining of melanocytic lesions” value in test [4] is “homogeneous cytoplasmic and cytoplasmic membrane staining”. The “reactivity with human melanoma cell lines” value in test [5] is “Broad reactivity”; in test [5] (listed as scFv-FcC21 (C21)), “able to recognize”. In addition, the “inhibition of melanoma cell growth in vitro” value in [6] is given as “Growth inhibition; also recorded: inhibited”. Moreover, the cell growth result in [1] (1520 cells negative for CSPG4, C21 0.1 mg/mL) is given as “did not affect”. The survival of mice result in test [7] is given as “prolonging the survival”. For the same molecule, in [8] (C21 0.1 mg/mL with vemurafenib increasing 500 to 10,000 nM), the “delay of resistance to vemurafenib in vitro” value is reported as “up to 28 days”. Moreover, the “onset of acquired resistance to vemurafenib” value in [8] (melanoma cell line 1520, BRAF^V600E positive, CSPG4 negative) is recorded as “did not delay”. In [9], the “activation of EGFR and PDGFRα” value is “down-regulating activation”.
